Measurements: patent US20190161539A1

Tests used:
[1] = biological target: β-amyloid peptide (1-42) conjugated to BSA; test: competition ELISA on coated Aβ1-42-BSA against biotinylated Mu266, first set of three experiments
[2] = biological target: β-amyloid peptide (1-42) conjugated to BSA; test: competition ELISA on coated Aβ1-42-BSA against biotinylated Mu266, second set of three experiments
Aβ 1-40 peptide (human) = test: KinExA 3000, equilibrium in solution with human soluble Abeta (1-40), 37° C.

Mouse monoclonal antibody 266 (Mu266)
IC50 [1]: 4.7 µg/mL | IC50 [2]: 3.87 µg/mL

m266-Fab
Kd (Aβ 1-40 peptide (human)): 240 pM
